These results are taken from US20230112123A1 (published 2023).

In this experiment the target is T1, human CD70 (human, UniProt P32970 1-193).
T1 chain: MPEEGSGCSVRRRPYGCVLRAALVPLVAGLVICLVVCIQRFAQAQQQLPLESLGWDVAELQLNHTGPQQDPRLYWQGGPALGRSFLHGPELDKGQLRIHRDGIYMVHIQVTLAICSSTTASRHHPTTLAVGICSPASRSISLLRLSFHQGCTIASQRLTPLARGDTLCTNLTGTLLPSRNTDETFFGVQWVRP
Description: FACS blocking of CD27(ECD)-Fc binding; CHO-CD70 cells.

B1: IMM40H (antibody, V domains shown)
VH: QVQLVQSGAEVKKPGASVKVSCKVSGYTFTDSALHWVRQAPGKGLEWMGVISTYDGDTDYNQKFKGRVTMTEDTSTDTAYMELSSLRSEDTAVYYCARRGYYDYDWFPYWGQGTLVTVSA
VL: DIVLTQSPASLAVSPGQRATITCRASKSVSASGYSFLHWYQQKPGQPPKLLIYLASNLESGVPARFSGSGSGTDFTLTINPVEANDTANYYCQHSRELPPTFGGGTKVEIKR
B1: the IC50 (usually the concentration at which inhibition is half-maximal) is 2.04 nM.

B2: Cusatuzumab (antibody, V domains shown)
VH: EVQLVESGGGLVQPGGSLRLSCAASGFTFSVYYMNWVRQAPGKGLEWVSDINNEGGTTYYADSVKGRFTISRDNSKNSLYLQMNSLRAEDTAVYYCARDAGYSNHVPIFDSWGQGTLVTVSS
VL: QAVVTQEPSLTVSPGGTVTLTCGLKSGSVTSDNFPTWYQQTPGQAPRLLIYNTNTRHSGVPDRFSGSILGNKAALTITGAQADDEAEYFCALFISNPSVEFGGGTQLTVLG
B2 came in with an IC50 of 2.39 nM.
